The text below walks through data of US20120100141A1 (GlaxoSmithKline, published 2012).

The labels stand for the following.
B1: Human GLP-1 receptor (receptor, UniProt P43220 24-463, looked up)
chain: RPQGATVSLWETVQKWREYRRQCQRSLTEDPPPATDLFCNRTFDEYACWPDGEPGSFVNVSCPWYLPWASSVPQGHVYRFCTAEGLWLQKDNSSLPWRDLSECEESKRGERSSPEEQLLFLYIIYTVGYALSFSALVIASAILLGFRHLHCTRNYIHLNLFASFILRALSVFIKDAALKWMYSTAAQQHQWDGLLSYQDSLSCRLVFLLMQYCVAANYYWLLVEGVYLYTLLAFSVLSEQWIFRLYVSIGWGVPLLFVVPWGIVKYLYEDEGCWTRNSNMNYWLIIRLPILFAIGVNFLIFVRVICIVVSKLKANLMCKTDIKCRLAKSTLTLIPLLGTHEVIFAFVMDEHARGTLRFIKLFTELSFTSFQGLMVAILYCFVNNEVQLEFRKSWERWRLEHLHIQRDSSMKPLKCPTSSLSSGATAGSSMYTATCQASCS
notes: whole, on cells
B2: GLP-1 (7-37) A8G, helical linker, DOM7h-14 dAb fusion (DAT0120) (other)
chain: HGEGTFTSDVSSYLEGQAAKEFIAWLVKGRGKEAAAKEAAAKEAAAKELAAKEAAAKEAAAKEAAAKELAADIQMTQSPSSLSASVGDRVTITCRASQWIGSQLSWYQQKPGKAPKLLIMWRSSLQSGVPSRFSGSGSGTDFTLTISSLQPEDFATYYCAQGAALPRTFGQGTKVEIKR
notes: Single-chain genetic fusion of GLP-1 (7-37) A8G, helical linker and DOM7h-14; also called GLP-1 (7-37) A8G, helical linker, DOM7h-14 fusion; GLP-1 A8G, helical linker, DOM7h-14 fusion
B3: Cynomolgus monkey serum albumin (CSA) (other, UniProt A2V9Z4 25-608, looked up)
chain: DTHKSEVAHRFKDLGEEHFKGLVLVAFSQYLQQCPFEEHVKLVNEVTEFAKTCVADESAENCDKSLHTLFGDKLCTVATLRETYGEMADCCAKQEPERNECFLQHKDDNPNLPPLVRPEVDVMCTAFHDNEATFLKKYLYEVARRHPYFYAPELLFFAARYKAAFAECCQAADKAACLLPKLDELRDEGKASSAKQRLKCASLQKFGDRAFKAWAVARLSQKFPKAEFAEVSKLVTDLTKVHTECCHGDLLECADDRADLAKYMCENQDSISSKLKECCDKPLLEKSHCLAEVENDEMPADLPSLAADYVESKDVCKNYAEAKDVFLGMFLYEYARRHPDYSVMLLLRLAKAYEATLEKCCAAADPHECYAKVFDEFQPLVEEPQNLVKQNCELFEQLGEYKFQNALLVRYTKKVPQVSTPTLVEVSRNLGKVGAKCCKLPEAKRMPCAEDYLSVVLNRLCVLHEKTPVSEKVTKCCTESLVNRRPCFSALELDEAYVPKAFNAETFTFHADMCTLSEKEKQVKKQTALVELVKHKPKATKEQLKGVMDNFAAFVEKCCKADDKEACFAEEGPKFVAASQAALA
notes: CSA is not spelled out where it is used; also called cynomolgus serum albumin; cyno serum albumin
B4: Mouse GLP-1 receptor (receptor, UniProt O35659 22-463, looked up)
chain: GPRPQGTTVSLSETVQKWREYRRQCQRFLTEAPLLATGLFCNRTFDDYACWPDGPPGSFVNVSCPWYLPWASSVLQGHVYRFCTAEGLWLHKDNSSLPWRDLSECEESKRGERNFPEEQLLSLYIIYTVGYALSFSALVIASAILVGFRHLHCTRNYIHLNLFASFILRALSVFIKDAALKWMYSTAAQQHQWDGLLSYQDSLGCRLVFLLMQYCVAANYYWLLVEGVYLYTLLAFSVFSEQRIFKLYLSIGWGVPLLFVIPWGIVKYLYEDEGCWTRNSNMNYWLIIRLPILFAIGVNFLIFIRVICIVVSKLKANLMCKTDIKCRLAKSTLTLIPLLGTHEVIFAFVMDEHARGTLRFIKLFTELSFTSFQGLMVAILYCFVNNEVQMEFRKCWERWRLEHLNIQRDCSMKPLKCPTSSVSSGATVGSSVYAATCQSSYS
notes: whole, on cells
B5: Rat GLP-1 receptor (receptor, UniProt P32301 22-463, looked up)
chain: GPRPQGATVSLSETVQKWREYRHQCQRFLTEAPLLATGLFCNRTFDDYACWPDGPPGSFVNVSCPWYLPWASSVLQGHVYRFCTAEGIWLHKDNSSLPWRDLSECEESKQGERNSPEEQLLSLYIIYTVGYALSFSALVIASAILVSFRHLHCTRNYIHLNLFASFILRALSVFIKDAALKWMYSTAAQQHQWDGLLSYQDSLGCRLVFLLMQYCVAANYYWLLVEGVYLYTLLAFSVFSEQRIFKLYLSIGWGVPLLFVIPWGIVKYLYEDEGCWTRNSNMNYWLIIRLPILFAIGVNFLVFIRVICIVIAKLKANLMCKTDIKCRLAKSTLTLIPLLGTHEVIFAFVMDEHARGTLRFVKLFTELSFTSFQGFMVAVLYCFVNNEVQMEFRKSWERWRLERLNIQRDSSMKPLKCPTSSVSSGATVGSSVYAATCQNSCS
notes: whole, on cells
B6: Rat serum albumin (RSA) (other, UniProt P02770 25-608, looked up)
chain: EAHKSEIAHRFKDLGEQHFKGLVLIAFSQYLQKCPYEEHIKLVQEVTDFAKTCVADENAENCDKSIHTLFGDKLCAIPKLRDNYGELADCCAKQEPERNECFLQHKDDNPNLPPFQRPEAEAMCTSFQENPTSFLGHYLHEVARRHPYFYAPELLYYAEKYNEVLTQCCTESDKAACLTPKLDAVKEKALVAAVRQRMKCSSMQRFGERAFKAWAVARMSQRFPNAEFAEITKLATDVTKINKECCHGDLLECADDRAELAKYMCENQATISSKLQACCDKPVLQKSQCLAEIEHDNIPADLPSIAADFVEDKEVCKNYAEAKDVFLGTFLYEYSRRHPDYSVSLLLRLAKKYEATLEKCCAEGDPPACYGTVLAEFQPLVEEPKNLVKTNCELYEKLGEYGFQNAVLVRYTQKAPQVSTPTLVEAARNLGRVGTKCCTLPEAQRLPCVEDYLSAILNRLCVLHEKTPVSEKVTKCCSGSLVERRPCFSALTVDETYVPKEFKAETFTFHSDICTLPDKEKQIKKQTALAELVKHKPKATEDQLKTVMGDFAQFVDKCCKAADKDNCFATEGPNLVARSKEALA
B7: 2xGLP-1 (7-37) A8G DOM7h-14 dAb fusion (DAT0114) (other)
chain: HGEGTFTSDVSSYLEGQAAKEFIAWLVKGRHGEGTFTSDVSSYLEGQAAKEFIAWLVKGRDIQMTQSPSSLSASVGDRVTITCRASQWIGSQLSWYQQKPGKAPKLLIMWRSSLQSGVPSRFSGSGSGTDFTLTISSLQPEDFATYYCAQGAALPRTFGQGTKVEIKR
notes: expressed in HEK293E cells, purified on protein L; also called 2xGLP-1 (7-37) A8G DOM7h-14 fusion

The target of experiment [1] is T1, Exendin 4, helical linker, DOM7h-14 dAb fusion (DAT0117).
T1 construct: also called Exendin 4, helical linker, DOM7h-14 fusion
The experiment in a line: 6CRE-luciferase reporter in CHO cells with human GLP-1R (called GLP-1R binding assay). On the technique in general: A reporter such as luciferase makes a cellular process visible.

Experiment [2] deals with T2, Exendin 4 (G4S linker)3 DOM7h-14 dAb fusion (DAT0115).
T2 construct: also called Exendin 4 (G4S)3 DOM7h-14 fusion
The description is as above.

Experiment [3] addresses T3, Exendin 4-DOM7h-14 dAb fusion (DAT0116).
T3 construct: also called Exendin 4 DOM7h-14 fusion
The description is as above.

Experiment [4] addresses T4, Exendin 4, (G4S)3, linker DOM7h-14-10 fusion (DMS7139).
T4 construct: expressed in E. coli with a cleaved OmpT AWA leader; also called DSM7139
Nature of the experiment: melanophore functional GLP-1R bioassay.

Experiment [5] concerns the target Mouse serum albumin (MSA) (mouse, UniProt P07724 25-608). Nature of the experiment: SPR (Biacore), albumin on CM5 chip, fusion in flow. (In general: Surface plasmon resonance follows binding to a sensor surface in real time, without labels.)
Experimental: (§1) The analysis was performed using a CM5 Biacore chip (carboxymethylated dextran matrix) that was coated with serum albumin. About 1000 resonance units (RUs) of each serum albumin to be tested (human, rat and mouse serum albumin) was immobilised in acetate buffer pH 5.5. […] Each fusion molecule tested was expressed in mammalian tissue culture as described in the example above.
(§2) Affinity (KD) was calculated from the BIACORE traces by fitting on-rate and off-rate curves to traces generated by concentrations of dAb in the region of the KD.
The target in experiment [6] is Human serum albumin (HSA) (human, UniProt P02768 25-609). Nature of the experiment: SPR (Biacore), albumin on CM5 chip, fusion in flow.
Experimental: as §1, §2
For the experiment “Rat serum albumin (RSA)”, the target named is B6. The experiment in a line: SPR (Biacore), albumin on CM5 chip, fusion in flow.
Experimental: as §1, §2
In experiment [7] the target is T2, Exendin 4 (G4S linker)3 DOM7h-14 dAb …. The experiment in a line: SPR (Biacore), biotinylated albumin on SA chip, fusion in flow.
Experimental: The analysis was performed using a streptavidin chip (SA) coated with biotinylated serum albumin. 200-1000 resonance units (RUs) of each serum albumin was immobilised on the chip. Flow cell 1 was uncoated, flow cell 2 was coated with HSA, flow cell 3 was coated with RSA and flow cell 4 was coated with CSA.
as §2
Experiment [8] addresses T4, Exendin 4, (G4S)3, linker DOM7h-14-10 …. The experiment in a line: SPR (Biacore), albumin on CM5 chip, fusion in flow.
Experimental: (§3) The analysis was performed using two CM5 chips (carboxymethylated dextran matrix) that were coated with serum albumin. ˜500 resonance units (RUs) of each serum albumin was immobilised in acetate buffer pH 4.5. The first chip had flow cell 1 uncoated and blocked and flow cell 2 was coated with MSA (560Rus). The second chip had flow cell 1 uncoated and blocked, flow cell 2 was coated with HSA, flow cell 3 was coated with CSA and flow cell 4 was coated with RSA. For all serum albumins, the aim was to coat in the region of 350 RUs of protein onto the chip.
as §2
The target of experiment [9] is T5, Exendin 4, (G4S)3, linker DOM7h-11-15 fusion (DMS7143).
T5 construct: expressed in E. coli with a cleaved OmpT AWA leader
The experiment in a line: SPR (Biacore), albumin on CM5 chip, fusion in flow.
Experimental: as §3, §2

Mouse serum albumin (MSA), sequence (P07724 25-608 limits assumed): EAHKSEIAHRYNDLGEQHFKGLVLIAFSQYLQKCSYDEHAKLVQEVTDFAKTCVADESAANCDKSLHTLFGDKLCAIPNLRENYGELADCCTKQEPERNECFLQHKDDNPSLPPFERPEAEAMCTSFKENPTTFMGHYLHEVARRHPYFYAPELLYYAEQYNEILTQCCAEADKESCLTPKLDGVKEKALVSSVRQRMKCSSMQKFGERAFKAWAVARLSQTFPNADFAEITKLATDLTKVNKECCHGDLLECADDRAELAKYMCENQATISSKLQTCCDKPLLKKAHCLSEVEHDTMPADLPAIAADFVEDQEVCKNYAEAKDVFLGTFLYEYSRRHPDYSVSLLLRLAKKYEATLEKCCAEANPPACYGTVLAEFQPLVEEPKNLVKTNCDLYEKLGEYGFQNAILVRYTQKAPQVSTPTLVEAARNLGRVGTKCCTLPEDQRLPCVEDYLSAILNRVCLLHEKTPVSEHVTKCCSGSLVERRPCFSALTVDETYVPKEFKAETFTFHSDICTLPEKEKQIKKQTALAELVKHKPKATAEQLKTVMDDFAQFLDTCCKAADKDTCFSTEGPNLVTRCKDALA

For the molecule B1, the binding result in [1], in [2], in [3] and in experiment [4] was “binds” throughout.

Regarding B2, the Kd (in general, the constant that tells how readily two partners part at equilibrium) in [5] came out at 110 nM; in [6] it was 110 nM; with Rat serum albumin (RSA), 800 nM.

Take B3: the Kd in experiment [7] amounted to 2000 nM; in [8] it was 42.3 nM; in experiment [9], 38.9 nM.

Consider B4, for which the binding result in [4] is “binds”.

B5: the binding result in experiment [4] is reported as “binds”.

Take B6: the Kd in experiment [7] stood at 2000 nM; in experiment [8] it was 31.5 nM; in experiment [9], 219 nM.

On to B7, for which the Kd was determined as 130 nM in experiment [5], 150 nM in [6] and 700 nM with Rat serum albumin (RSA).
